Where two headings read alike, the source gives them in different places.
B1: humanized antibody huE1A9C8A7-V3 (antibody, human IgG4 S228P, kappa, V domains shown)
VH: QVQLVQSGAEVVKPGASVKISCKASGYTFSDYVMHWVRQAPGQSLEWIGVISTYHIPAVYNQKFKGKATMTVDKSTSTVYLELSSLRSEDTAVYYCAREVYGDSYYFDVWGQGTTVTVSS
VL: DIVMTQTPLSLPVTPGEPASISCRSSQSIVHSNGNTYLEWYLQKPGQSPQLLIYKVSNRFSGVPDRFSGSGSGTDFTLKISRVEAEDVGVYYCFQGSHVPYTFGGGTKVEIKR
notes: Human IgG4/kappa
B2: Nivolumab (antibody, V domains shown)
VH: QVQLVESGGGVVQPGRSLRLDCKASGITFSNSGMHWVRQAPGKGLEWVAVIWYDGSKRYYADSVKGRFTISRDNSKNTLFLQMNSLRAEDTAVYYCATNDDYWGQGTLVTVSS
VL: EIVLTQSPATLSLSPGERATLSCRASQSVSSYLAWYQQKPGQAPRLLIYDASNRATGIPARFSGSGSGTDFTLTISSLEPEDFAVYYCQQSSNWPRTFGQGTKVEIK
B3: Pembrolizumab (antibody, V domains shown)
VH: QVQLVQSGVEVKKPGASVKVSCKASGYTFTNYYMYWVRQAPGQGLEWMGGINPSNGGTNFNEKFKNRVTLTTDSSTTTAYMELKSLQFDDTAVYYCARRDYRFDMGFDYWGQGTTVTVSS
VL: EIVLTQSPATLSLSPGERATLSCRASKGVSTSGYSYLHWYQQKPGQAPRLLIYLASYLESGVPARFSGSGSGTDFTLTISSLEPEDFAVYYCQHSRDLPLTFGGGTKVEIKR

Legend:
[1] = target: T1, human PD-1-his protein (Cat#:PD1-H5221, Acro biosystems Inc.) (human, UniProt Q15116 25-167); assay: BLI (Octet RED96), cell supernatant antibody captured on AHC sensor, human PD-1-his in solution
T1 construct: not shown: his tag
Experimental: Briefly, AHC biosensors (anti-human IgG Fe capture, from ForteBio) were presoaked with 10 mM glycine (pH 1.5) for 3 seconds, and then dipped in a well with running buffer (0.5% w/v BSA in PBST) for 3 seconds, the soaking and dipping steps were repeated for three times. […] A new baseline was run for 100 seconds in another well with running buffer. Then the sensors were dipped in a well with serially diluted human PD-1-his protein (Cat#:PD1-H5221, Acro biosystems Inc., starting at 100 nM with a two-fold serial dilution) in running buffer for 120 seconds, and then immersed in a baseline well for […]. Finally, sensors were presoaked with 10 mM glycine (pH 1.5) for 30 seconds, and then were dipped in a well with running buffer for 30 seconds. The association and dissociation curves were fit to a 1:1 Langmuir binding model using ForteBio Data Analysis 8.1 evaluation software.

[2] = target: T2, in house made human PD-1-Fc protein (human, biotin-labeled (sites not given)); assay: blocking FACS: biotin human PD-1-Fc + antibody on GS-C2/PD-L1 cells (competitor: cell-surface human PD-L1)
T2 construct: also called biotin-labeled human PD-1-Fc
Experimental: (§1) GS-C2/PDL1 cells were harvested from cell culture flasks at the log phase, washed twice and re-suspended in PBS containing 2% v/v Fetal Bovine Serum (FACS buffer). GS-C2/PD-L1 cells, 0.6×10⁵ cells per welt, were incubated in 96 well-plates with 100 the antibody/PD1-Fc mixture for 40 minutes at 4° C. Cells were washed twice with FACS buffer, added with 100 R-Phycoerythrin Streptavidin (1:500 dilution in FACS buffer, Cat#:016-110-084, Jackson Immunoresearch), and incubated for 40 minutes at 4° C. in dark. Cells were washed twice and re-suspended in FACS buffer. Fluorescence was measured using a Becton Dickinson FACS Canto II-HTS equipment. Data was analyzed using Graphpad Prism software and IC₅₀ values were reported.

[3] = target: T3, cynomolgus PD-1-his protein (Cat#:PD1-05223, Acro biosystems Inc.) (cynomolgus, UniProt B0LAJ3 25-170); assay: indirect ELISA on coated cynomolgus PD-1-his
T3 construct: Bought protein used in Biacore and indirect ELISA; also called monkey PD-1; Cyno PD-1

[4] = target: T3, cynomolgus PD-1-his protein …; assay: SPR (Biacore T200), antibody captured on Protein G chip, PD-1-his in flow, 1:1 fit
[5] = target: T2, in house made human PD-1-Fc protein; assay: capture ELISA: antibody captured on anti-human IgG coated plate, biotin-labeled human PD-1-Fc detected with streptavidin-HRP; unit from the axis 'Con of mAb, nM.'
[6] = target: T2, in house made human PD-1-Fc protein; assay: competitive ELISA: soluble Pembrolizumab pre-mixed with biotin-labeled human PD-1-Fc, added to coated Pembrolizumab (self-competition); unit from the axis 'Con of mAb, nM.'
[7] = target: T2, in house made human PD-1-Fc protein; assay: competitive ELISA: antibody pre-mixed with biotin-labeled human PD-1-Fc, added to coated human PD-L1-Fc (blocked ligand); unit from the axis 'Con of mAb, nM.'
Experimental: (§2) The activities of the anti-PD1 antibodies of the disclosure to block PD-L1-PD1 binding were measured in a competitive ELISA.
(§3) Briefly, 100 μl human PD-L1-Fc protein (prepared in-house with SEQ ID NO: 28) at 2 μg/mL in carbonate/bicarbonate buffer (pH 9.6) was coated on 96-well micro plates overnight at 4° C., Plates were washed with wash buffer (PBS+0.05% w/v Tween-20, PBST), and blocked with 5% w/v non-fatty milk in PBST for 2 hours at 37° C. […] After incubation at 37° C. for 40 minutes, plates were washed using wash buffer. […] Plates were washed again using wash buffer. Finally, TMB was added and the reaction was stopped using 1M H₂SO₄. The absorbance was read on a microplate reader using dual wavelength mode with 450 nm for TMB and 630 nm as the reference wavelength, then the OD (450-630) values were plotted against antibody concentrations. Data was analyzed using Graphpad Prism software and IC₅₀ values were reported.

[8] = target: T3, cynomolgus PD-1-his protein …; assay: indirect ELISA on coated cynomolgus PD-1-his; unit from the axis 'Con of mAb, nM.'
Experimental: (§4) Briefly, 96-well micro plates were coated with 100 μl 2 μg/ml mouse PD-1-his (Cat#:50124-M08H, Sino Biological Inc) or 2 μg,/ml cynomolgus PD-1-his (Cat#:PD1-05223, Acro biosystems Inc.) in carbonate/bicarbonate buffer (pH 9.6) for 2 hours at 37° C. Plates were washed once with wash buffer (PBST, PBS+0.05% Tween-20) and then blocked with 200 μl blocking buffer (5% w/v non-fatty milk in PBST) for 2 hours at 37° C. […] ELISA plates were washed 4 times and incubated with Peroxidase AffiniPure goat anti-mouse IgG, Fcγ Fragment Specific (1:5000 dilution in PBST buffer, Cat#:115-035-071, Jackson ImmunoResearch Laboratories, Inc., 100 μl/well) or Peroxidase AffiniPure F(ab′)₂ Fragment Goat Anti-Human IgG, Fcγ fragment specific (Cat#:109-036-098, Jackson ImmunoResearch, for the controls) for 40 minutes at 37° C. After a final wash, plates were incubated with 100 μl/well TMB (Cat#:TMB-S-002, innoreagents) at room temperature. The reaction was stopped 3-10 minutes later with 50 μl/well 1M H₂SO₄, and the absorbance was read on a microplate reader using dual wavelength mode with 450 nm for TMB and 630 nm as the reference wavelength. Then the OD (450-630) values were plotted against antibody concentrations. Data was analyzed using GraphPad Prism software and EC₅₀ values were reported.

[9] = target: T2, in house made human PD-1-Fc protein; assay: capture ELISA: antibody captured on anti-human IgG coated plate, biotin-labeled human PD-1-Fc detected with streptavidin-HRP; unit from the axis 'Con of mAb, nM.'; remark: listed apart in the source
[10] = target: T3, cynomolgus PD-1-his protein …; assay: indirect ELISA on coated cynomolgus PD-1-his; unit from the axis 'Con of mAb, nM.'; remark: listed apart in the source
Experimental: as §4

[11] = target: T2, in house made human PD-1-Fc protein; assay: cell-based blocking FACS: antibody pre-mixed with biotin-labeled human PD-1-Fc, added to GS-C2/PD-L1 cells expressing human PD-L1 (blocked ligand); unit from the axis 'Con of mAb, nM.'
Experimental: as §1

[12] = target: T2, in house made human PD-1-Fc protein; assay: competitive ELISA: antibody pre-mixed with biotin-labeled human PD-1-Fc, added to coated human PD-L1-Fc (blocked ligand); unit from the axis 'Con of mAb, nM.'; remark: listed apart in the source
Experimental: as §2, §3

[13] = target: T2, in house made human PD-1-Fc protein; assay: competitive ELISA: soluble Pembrolizumab pre-mixed with biotin-labeled human PD-1-Fc, added to coated Pembrolizumab (self-competition); unit from the axis 'Con of mAb, nM.'; remark: listed apart in the source

Row | Binder | binding result [1] | IC50 [2] | EC50 [3] | Kd [4] | EC50 [5] | IC50 [6] | IC50 [7] | EC50 [8] | EC50 [9] | EC50 [10] | IC50 [11] | IC50 [12] | IC50 [13]
1 | B1 | no binding (tested: antigen series starting at 100 nM) | – | – | – | – | – | – | – | – | – | – | – | –
2 | B2 | – | 0.52 nM | 0.23 nM | 5.64 nM | – | – | – | – | – | – | – | – | –
3 | B3 | – | 0.49 nM | 0.2 nM | – | 0.118 nM | 0.0735 nM | 0.345 nM | 0.0957 nM | 0.113 nM | 0.093 nM | 0.32 nM | 0.37 nM | 0.0759 nM
